Reference: patent US7186551B1, “3′-phosphoadenosine -5′-phosphosulfate synthetase 2 (PAPSS2) sequence variants” (Mayo Foundation for Medical Education and Research, priority 2001, dated 2007)
“And” between values parts separate entries of the source, which are not always exact repeats. Identical values can stand only once.

Legend:
Format in all cases: biochemical, human
PAPSS2 [1] = experiment: PAPSS2 enzyme activity, coupled radiochemical assay (PAPS generation then SULT1E1-catalyzed sulfation of [3H]estradiol) with COS-1 expressed recombinant allozymes; conditions: non-His-tagged expression vector p91023(b), COS-1 cells, corrected for transfection efficiency
PAPSS2 [2] = experiment: Substrate kinetic studies of recombinant PAPSS2 with ATP and Na2SO4
Procedure: To estimate apparent Km values of PAPSS2 for the two reaction cosubstrates, a series of ATP (0.125–4 mM) and Na2SO4 (0.125–16 mM) concentrations were tested with the recombinant allozymes. When ATP was the varied substrate, the concentration of Na2SO4 was 4 mM, and when Na2SO4 was the varied substrate, the concentration of ATP was 1 mM. Blanks for each substrate concentration were included by assaying COS-1 cell cytosol after transfection with empty vector.
Data Analysis: Apparent Km values were calculated by using the method of Wilkinson with a computer program written by Cleland. Wilkinson, Biochem. J., 80:324–332 (1961); and Cleland, Nature, 198:[…] (1963). Statistical comparisons of data were performed by ANOVA with the StatView program, version 4.5 (Abacus Concepts, Inc., Berkeley, Calif.). Apparent Km, S50 and Vmax values for the wild-type and variant PAPSS2 allozymes were compared by the use of unpaired Student's t-test.
Alterations in amino acid sequence can alter enzyme substrate affinity and/or catalytic efficiency. Decreased activity of the Val291Met allozyme—without a significant alteration in level of enzyme protein—could have resulted from a change in substrate kinetics. Therefore, a series of ATP (0.125–4 mM) and Na2SO4 (0.125–16 mM) concentrations were used to estimate apparent Km values for recombinant wild type PAPSS2 and for the Val291Met variant allozyme. […] ATP concentrations at which 50% maximal velocity was achieved (S50 values) were 0.70 and 0.95 mM for the wild type and variant allozymes, respectively (Table 4). In both cases, the Hill coefficient was greater than 2, […]. In contrast, substrate kinetics of both allozymes for Na2SO4 conformed to Michaelis-Menten predictions (FIG. 5B). […] In summary, decreased activity for the Val1291Met variant appeared to result from an alteration in substrate kinetics, while decreased activity for the Glu10Lys allozyme, in contrast, resulted primarily from a decrease in the quantity of enzyme protein. Because the Val291Met variant was encoded by a construct that contained the most common PAPSS2 nonsynonymous cSNP, these observations could have functional implications for the sulfate conjugation of both endogenous and/or exogenous compounds.

PAPSS2 [3] = experiment: PAPSS2 enzyme activity, coupled radiochemical assay (PAPS generation then SULT1E1-catalyzed sulfation of [3H]estradiol) with COS-1 expressed recombinant allozymes; conditions: for % WT activity / decrease in enzyme activity compared with the wild type enzyme: His-tagged recombinant allozyme, loxP-modified p91023(b) vector, COS-1 cells, corrected for transfection efficiency; for activity relative to the reference PAPSS2 (in words): general statement in the description
Excerpt: Variant alleles of the four non-synonymous PAPSS2 cSNPs observed during the resequencing experiments were created using the QuickChange Site-Directed Mutagenesis Kit (Stratagene, La Jolla, Calif.), with wild type PAPSS2 cDNA in pUni as template. The sequence of the pUni insert was confirmed by completely sequencing both strands before recombination with the loxP-modified p91023(b) acceptor vector. pUni donor vectors that contained wild type and variant PAPSS2 cDNAs, as well as empty pUni, then were combined with the loxP-modified p91023(b) acceptor vector to generate the final expression constructs. In all cases, the fusion junctions of resultant expression constructs were sequenced to confirm that the construct was a dimer consisting of only a single donor and a single acceptor vector. These expression constructs were used to transfect COS-1 cells using TransFast™ reagent (Promega) with a 1:1 charge ratio. pSV-β-galactosidase (Promega) was co-transfected with each construct as an internal control to correct for transfection efficiency. Transfected COS-1 cells were harvested after 48 hours and were homogenized with a Polytron homogenizer (Brinkmann Instruments, Westbury, N.Y.) in 25 mM potassium phosphate buffer, pH 7.8, containing 1 mM dithiothreitol (DTT) and 1 mM EDTA. The homogenates were centrifuged at 15,000 g for 15 minutes, and the resultant supernatant preparations were used to perform enzyme assays, substrate kinetic studies and Western blot analyses. In some cases, aliquots of these cytosol preparations were stored at −80° C. prior to assay.
PAPSS2 Enzyme Activity: PAPSS2 activity was measured with a coupled radiochemical assay. See Xu et al., 2001, supra. Briefly, PAPS is generated from ATP and Na2SO4 in a PAPSS2-catalyzed reaction. The generated PAPS is then used as a substrate for the SULT1E1-catalyzed sulfate conjugation of [2,4,6,7-^3H]estradiol, a radioactively labeled sulfate acceptor substrate. The cell homogenate preparations of recombinant PAPSS2 allozymes described above were used for the activity studies without any further purification. The protein concentration of each recombinant protein preparation was determined by the dye-binding method of Bradford with bovine serum albumin (BSA) as a standard.
PAPS synthesis was catalyzed by recombinant wild-type PAPSS2 or PAPSS2 allozymes (present in the cell homogenate preparations described above) in the presence of 1 mM ATP, 16 mM Na2SO4, 1 mM MgCl2, and 2 mM DTT in 60 mM glycine-NaOH buffer, pH 8.6. Blank samples included the same quantity of COS-1 cytosol protein from cells that had been transfected with empty expression vector to make it possible to correct for endogenous activity. Reaction mixtures were incubated at 37° C. for 20 minutes, and then terminated by heating at 100° C. for 1 minute. An aliquot from this PAPS-generating reaction was then added to a second, coupled reaction containing recombinant human SULT1E1 isolated from COS-1 cells transfected with a SULT1E1 expression construct (see Aksoy et al., Biochem. Biophys. Res. Commun., 200:1621–1629 (1994)). The coupled reaction also included 27 nM [2,4,6,7-^3H]estradiol, 8 mM DTT and 1.25 mM MgCl2 in 10 mM potassium phosphate buffer, pH 6.5. The second, SULT1E1-catalyzed reactions were incubated at 37° C. for 20 minutes, and then terminated by the addition of KOH, followed by organic solvent extraction performed with chloroform. Radioactivity of the sulfate conjugated [2,4,6,7-^3H]estradiol in the aqueous phase after organic solvent extraction was then measured in a liquid scintillation counter. PAPSS activities of recombinant PAPSS2 allozymes were compared after correction for transfection efficiency by measuring the activity of cotransfected P-galactosidase. β-Galactosidase activity in the COS-1 cell preparations was measured with the β-Galactosidase Assay System (Promega) as described by the manufacturer. […]

| activity reduced compared with wild type (PAPSS2 [1]) [%] | % WT activity (PAPSS2 [3]) | Molecule | S50 for ATP (ATP concentration at which 50% maximal velocity was achieved) (PAPSS2 [2]; ATP varied 0.125-4 mM, Na2SO4 4 mM) | Km (PAPSS2 [2]; apparent Km, Na2SO4 varied 0.125-16 mM, ATP 1 mM) [µM] | Vmax/S50, ATP (PAPSS2 [2]; ratio, wild type = 100, ATP as varied substrate) | Vmax, ATP (PAPSS2 [2]; relative Vmax, wild type = 100, ATP as varied substrate) | Vmax, Na2SO4 (PAPSS2 [2]; relative Vmax, wild type = 100, Na2SO4 as varied substrate) | decrease in enzyme activity compared with the wild type enzyme (PAPSS2 [3]) [%] | activity relative to the reference PAPSS2 (in words) (PAPSS2 [3]) |
| --- | --- | --- | --- | --- | --- | --- | --- | --- | --- |
| 57.4 | 37.1 ± 6.9% | Val291Met: PAPSS2 polypeptide allozyme having a methionine at amino acid 291 in place of valine (adenine at nucleotide 871) (protein) MSGIKKQKTENQQKSTNVVYQAHHVSRNKRGQVVGTRGGFRGCTVWLTGLSGAGKTTISFALEEYLVSHAIPCYSLDGDNVRHGLNRNLGFSPGDREENIRRIAEVAKLFADAGLVCITSFISPFAKDRENARKIHESAGLPFFEIFVDAPLNICESRDVKGLYKRARAGEIKGFTGIDSDYEKPETPERVLKTNLSTVSDCVHQVVELLQEQNIVPYTIIKDIHELFVPENKLDHVRAEAETLPSLSITKLDLQWVQVLSEGWATPLKGFMREKEYLQVMHFDTLLDDGMINMSIPIVLPVSAEDKTRLEGCSKFVLAHGGRRVAILRDAEFYEHRKEERCSRVWGTTCTKHPHIKMVMESGDWLVGGDLQVLEKIRWNDGLDQYRLTPLELKQKCKEMNADAVFAFQLRNPVHNGHALLMQDTCRRLLERGYKHPVLLLHPLGGWTKDDDVPLDWRMKQHAAVLEEGVLDPKSTIVAIFPSPMLYAGPTEVQWHCRSRMIAGANFYIVGRDPAGMPHPETKKDLYEPTHGGKVLSMAPGLTSVEIIPFRVAAYNKAKKAMDFYDPARHNEFDFISGTRMRKLAREGENPPDGFMAPKAWKVLTDYYRSLEKN | 0.95 mM and 0.95 ± 0.02 mM | 3000 | 27.8 ± 3.3 | 37 ± 3.9 | 45 ± 2.4 | 62.9 | reduced activity |
|  | 107.7% and 107.7 ± 2.9% | Met281Leu: PAPSS2 polypeptide allozyme having a leucine at amino acid residue 281 in place of methionine (thymine at nucleotide 841) (protein) MSGIKKQKTENQQKSTNVVYQAHHVSRNKRGQVVGTRGGFRGCTVWLTGLSGAGKTTISFALEEYLVSHAIPCYSLDGDNVRHGLNRNLGFSPGDREENIRRIAEVAKLFADAGLVCITSFISPFAKDRENARKIHESAGLPFFEIFVDAPLNICESRDVKGLYKRARAGEIKGFTGIDSDYEKPETPERVLKTNLSTVSDCVHQVVELLQEQNIVPYTIIKDIHELFVPENKLDHVRAEAETLPSLSITKLDLQWVQVLSEGWATPLKGFMREKEYLQVLHFDTLLDDGVINMSIPIVLPVSAEDKTRLEGCSKFVLAHGGRRVAILRDAEFYEHRKEERCSRVWGTTCTKHPHIKMVMESGDWLVGGDLQVLEKIRWNDGLDQYRLTPLELKQKCKEMNADAVFAFQLRNPVHNGHALLMQDTCRRLLERGYKHPVLLLHPLGGWTKDDDVPLDWRMKQHAAVLEEGVLDPKSTIVAIFPSPMLYAGPTEVQWHCRSRMIAGANFYIVGRDPAGMPHPETKKDLYEPTHGGKVLSMAPGLTSVEIIPFRVAAYNKAKKAMDFYDPARHNEFDFISGTRMRKLAREGENPPDGFMAPKAWKVLTDYYRSLEKN |  |  |  |  |  |  | activity that is comparable to the reference PAPSS2 |
| 14.1 | 72.6 ± 7.2% | Glu10Lys: PAPSS2 polypeptide allozyme having a lysine at amino acid residue 10 in place of glutamic acid (adenine at nucleotide 28) (protein) MSGIKKQKTKNQQKSTNVVYQAHHVSRNKRGQVVGTRGGFRGCTVWLTGLSGAGKTTISFALEEYLVSHAIPCYSLDGDNVRHGLNRNLGFSPGDREENIRRIAEVAKLFADAGLVCITSFISPFAKDRENARKIHESAGLPFFEIFVDAPLNICESRDVKGLYKRARAGEIKGFTGIDSDYEKPETPERVLKTNLSTVSDCVHQVVELLQEQNIVPYTIIKDIHELFVPENKLDHVRAEAETLPSLSITKLDLQWVQVLSEGWATPLKGFMREKEYLQVMHFDTLLDDGVINMSIPIVLPVSAEDKTRLEGCSKFVLAHGGRRVAILRDAEFYEHRKEERCSRVWGTTCTKHPHIKMVMESGDWLVGGDLQVLEKIRWNDGLDQYRLTPLELKQKCKEMNADAVFAFQLRNPVHNGHALLMQDTCRRLLERGYKHPVLLLHPLGGWTKDDDVPLDWRMKQHAAVLEEGVLDPKSTIVAIFPSPMLYAGPTEVQWHCRSRMIAGANFYIVGRDPAGMPHPETKKDLYEPTHGGKVLSMAPGLTSVEIIPFRVAAYNKAKKAMDFYDPARHNEFDFISGTRMRKLAREGENPPDGFMAPKAWKVLTDYYRSLEKN |  |  |  |  |  | 27.4 | reduced activity |
|  | 104.8% and 104.8 ± 10.1% | Arg432Lys: PAPSS2 polypeptide allozyme having a lysine at amino acid 432 in place of arginine (adenine at nucleotide 1295) (protein) MSGIKKQKTENQQKSTNVVYQAHHVSRNKRGQVVGTRGGFRGCTVWLTGLSGAGKTTISFALEEYLVSHAIPCYSLDGDNVRHGLNRNLGFSPGDREENIRRIAEVAKLFADAGLVCITSFISPFAKDRENARKIHESAGLPFFEIFVDAPLNICESRDVKGLYKRARAGEIKGFTGIDSDYEKPETPERVLKTNLSTVSDCVHQVVELLQEQNIVPYTIIKDIHELFVPENKLDHVRAEAETLPSLSITKLDLQWVQVLSEGWATPLKGFMREKEYLQVMHFDTLLDDGVINMSIPIVLPVSAEDKTRLEGCSKFVLAHGGRRVAILRDAEFYEHRKEERCSRVWGTTCTKHPHIKMVMESGDWLVGGDLQVLEKIRWNDGLDQYRLTPLELKQKCKEMNADAVFAFQLRNPVHNGHALLMQDTCRRLLEKGYKHPVLLLHPLGGWTKDDDVPLDWRMKQHAAVLEEGVLDPKSTIVAIFPSPMLYAGPTEVQWHCRSRMIAGANFYIVGRDPAGMPHPETKKDLYEPTHGGKVLSMAPGLTSVEIIPFRVAAYNKAKKAMDFYDPARHNEFDFISGTRMRKLAREGENPPDGFMAPKAWKVLTDYYRSLEKN |  |  |  |  |  |  | activity that is comparable to the reference PAPSS2 |
